Experimental data: publication PMC9482650, “Quantitative fragmentomics allow affinity mapping of interactomes” (Nature Communications, 2022)

T1: ARHGEF11, O15085
T1 sequence (O15085 42-136, limits assumed, looked up): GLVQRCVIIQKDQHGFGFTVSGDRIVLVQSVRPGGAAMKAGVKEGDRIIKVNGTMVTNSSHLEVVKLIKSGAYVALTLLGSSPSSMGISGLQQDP

T2: SNTG1, Q9NSN8
T2 sequence (Q9NSN8 52-150, limits assumed, looked up): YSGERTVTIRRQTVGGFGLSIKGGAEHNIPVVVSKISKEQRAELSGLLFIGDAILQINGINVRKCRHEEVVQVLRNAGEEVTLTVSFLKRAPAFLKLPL

T3: APBA3_1, O96018
T3 sequence (O96018 389-490, limits assumed, looked up): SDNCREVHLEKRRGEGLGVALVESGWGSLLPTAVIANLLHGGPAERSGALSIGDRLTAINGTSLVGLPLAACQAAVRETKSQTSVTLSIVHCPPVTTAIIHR

T4: TX1BP3, O14907
T4 sequence (O14907 10-122, limits assumed, looked up): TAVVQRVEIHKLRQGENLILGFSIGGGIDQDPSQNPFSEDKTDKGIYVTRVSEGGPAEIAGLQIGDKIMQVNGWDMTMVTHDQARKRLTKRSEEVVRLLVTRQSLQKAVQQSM

T5: PDZD7_3, Q9H5P4
T5 sequence (Q9H5P4 857-944, limits assumed, looked up): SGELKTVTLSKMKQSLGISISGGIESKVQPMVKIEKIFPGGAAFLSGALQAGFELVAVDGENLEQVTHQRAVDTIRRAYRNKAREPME

T6: TJP3_3, O95049
T6 sequence (O95049 375-456, limits assumed, looked up): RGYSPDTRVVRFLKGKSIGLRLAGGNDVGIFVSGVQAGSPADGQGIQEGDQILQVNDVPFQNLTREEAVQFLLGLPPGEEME

T7: APBA2_1, Q99767
T7 sequence (Q99767 563-664, limits assumed, looked up): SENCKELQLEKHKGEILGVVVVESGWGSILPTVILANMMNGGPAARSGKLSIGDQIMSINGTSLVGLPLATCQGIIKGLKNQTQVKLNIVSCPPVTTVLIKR

T8: SNTA1, Q13424
T8 sequence (Q13424 82-180, limits assumed, looked up): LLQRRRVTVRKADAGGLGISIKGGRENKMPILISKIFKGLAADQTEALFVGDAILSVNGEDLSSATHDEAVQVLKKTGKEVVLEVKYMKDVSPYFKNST

T9: CARD11, Q9BXL7
T9 sequence (Q9BXL7 662-765, limits assumed, looked up): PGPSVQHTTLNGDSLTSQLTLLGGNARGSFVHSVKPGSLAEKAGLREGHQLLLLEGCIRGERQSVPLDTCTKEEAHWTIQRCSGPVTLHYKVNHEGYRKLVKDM

T10: MPP7, Q5T2T1
T10 sequence (Q5T2T1 134-230, limits assumed, looked up): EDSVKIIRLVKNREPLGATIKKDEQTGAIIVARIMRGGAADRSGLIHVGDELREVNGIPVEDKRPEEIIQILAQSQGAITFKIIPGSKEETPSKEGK

T11: HTRA3, P83110
T11 sequence (P83110 354-453, limits assumed, looked up): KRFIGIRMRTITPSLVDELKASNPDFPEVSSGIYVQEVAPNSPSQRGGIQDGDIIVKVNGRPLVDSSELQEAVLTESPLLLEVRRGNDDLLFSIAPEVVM

T12: MPP6, Q9NZW5
T12 sequence (Q9NZW5 125-219, limits assumed, looked up): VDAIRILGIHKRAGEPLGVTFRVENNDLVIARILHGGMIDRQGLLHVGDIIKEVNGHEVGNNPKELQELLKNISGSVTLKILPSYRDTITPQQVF

T13: FRMPD1, Q5SYB0
T13 sequence (Q5SYB0 52-145, limits assumed, looked up): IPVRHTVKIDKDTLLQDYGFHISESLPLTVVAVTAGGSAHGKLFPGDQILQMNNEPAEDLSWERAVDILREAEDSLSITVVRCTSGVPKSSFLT

T14: NHERF3_4, Q5T2W1
T14 sequence (Q5T2W1 373-468, limits assumed, looked up): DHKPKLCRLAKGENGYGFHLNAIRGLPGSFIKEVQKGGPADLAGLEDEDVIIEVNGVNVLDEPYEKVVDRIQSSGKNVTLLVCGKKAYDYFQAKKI

T15: RHPN1, Q8TCX5
T15 sequence (Q8TCX5 508-602, limits assumed, looked up): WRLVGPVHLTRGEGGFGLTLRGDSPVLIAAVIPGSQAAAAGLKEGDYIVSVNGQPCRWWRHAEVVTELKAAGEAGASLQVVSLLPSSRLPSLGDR

B1: ZSCAN30, Q86W11 (peptide)
chain: MQHQRTHTRV
B2: PTPRZ1, P23471 (peptide)
chain: NIAESLESLV
B3: MARCHF3, Q86UD3 (peptide)
chain: VKRNSKETVV

Target: T1, ARHGEF11, O15085
Assay: holdup assay
Parameters: key: below the threshold = too weak to quantify, mostly under pKd 3.1 to 4
Details: plain residues with an end cap or a label only (N-terminal biotin on a linker: ado-ado)

Binder	pKd
B1	4.3
B2	3.67
B3	4.04

Target: T2, SNTG1, Q9NSN8
Assay: holdup assay
Parameters: key: below the threshold = too weak to quantify, mostly under pKd 3.1 to 4
Details: plain residues with an end cap or a label only (N-terminal biotin on a linker: ado-ado)

Binder	pKd
B1	below the threshold
B2	4.94
B3	4.13

Target: TJP1_2, Q07157
Assay: holdup assay
Parameters: key: below the threshold = too weak to quantify, mostly under pKd 3.1 to 4
Details: plain residues with an end cap or a label only (N-terminal biotin on a linker: ado-ado)

Chain of TJP1_2, Q07157 (Q07157 181-274): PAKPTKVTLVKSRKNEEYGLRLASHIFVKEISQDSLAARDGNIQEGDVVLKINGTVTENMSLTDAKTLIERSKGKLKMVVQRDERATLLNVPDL

Binder	pKd
B1	below the threshold
B2	below the threshold
B3	below the threshold

Target: T3, APBA3_1, O96018
Assay: holdup assay
Parameters: key: below the threshold = too weak to quantify, mostly under pKd 3.1 to 4
Details: plain residues with an end cap or a label only (N-terminal biotin on a linker: ado-ado)

Binder	pKd
B1	below the threshold
B2	below the threshold
B3	below the threshold

Target: T4, TX1BP3, O14907
Assay: holdup assay
Parameters: key: below the threshold = too weak to quantify, mostly under pKd 3.1 to 4
Details: plain residues with an end cap or a label only (N-terminal biotin on a linker: ado-ado)

Binder	pKd
B1	3.57
B2	4.26
B3	4.16

Target: CASK, O14936
Assay: holdup assay
Parameters: key: below the threshold = too weak to quantify, mostly under pKd 3.1 to 4
Details: plain residues with an end cap or a label only (N-terminal biotin on a linker: ado-ado)

Chain of CASK, O14936 (O14936 487-570): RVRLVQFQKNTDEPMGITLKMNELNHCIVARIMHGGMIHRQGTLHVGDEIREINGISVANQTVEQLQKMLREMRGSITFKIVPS

Binder	pKd
B1	below the threshold
B2	below the threshold
B3	below the threshold

Target: T5, PDZD7_3, Q9H5P4
Assay: holdup assay
Parameters: key: below the threshold = too weak to quantify, mostly under pKd 3.1 to 4
Details: plain residues with an end cap or a label only (N-terminal biotin on a linker: ado-ado)

Binder	pKd
B1	4.37
B2	4.7
B3	4.82

Target: T6, TJP3_3, O95049
Assay: holdup assay
Parameters: key: below the threshold = too weak to quantify, mostly under pKd 3.1 to 4
Details: plain residues with an end cap or a label only (N-terminal biotin on a linker: ado-ado)

Binder	pKd
B1	below the threshold
B2	below the threshold
B3	below the threshold

Target: T7, APBA2_1, Q99767
Assay: holdup assay
Parameters: key: below the threshold = too weak to quantify, mostly under pKd 3.1 to 4
Details: plain residues with an end cap or a label only (N-terminal biotin on a linker: ado-ado)

Binder	pKd
B1	below the threshold
B2	below the threshold
B3	below the threshold

Target: T8, SNTA1, Q13424
Assay: holdup assay
Parameters: key: below the threshold = too weak to quantify, mostly under pKd 3.1 to 4
Details: plain residues with an end cap or a label only (N-terminal biotin on a linker: ado-ado)

Binder	pKd
B1	4.23
B2	4.51
B3	5.37

Target: GRIP2_7, Q9C0E4
Assay: holdup assay
Parameters: key: below the threshold = too weak to quantify, mostly under pKd 3.1 to 4
Details: plain residues with an end cap or a label only (N-terminal biotin on a linker: ado-ado)

Chain of GRIP2_7, Q9C0E4 (Q9C0E4 934-1023): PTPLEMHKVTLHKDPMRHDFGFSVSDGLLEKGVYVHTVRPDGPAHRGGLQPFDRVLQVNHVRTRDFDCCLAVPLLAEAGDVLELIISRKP

Binder	pKd
B1	below the threshold
B2	below the threshold
B3	below the threshold

Target: T9, CARD11, Q9BXL7
Assay: holdup assay
Parameters: key: below the threshold = too weak to quantify, mostly under pKd 3.1 to 4
Details: plain residues with an end cap or a label only (N-terminal biotin on a linker: ado-ado)

Binder	pKd
B1	below the threshold
B2	below the threshold
B3	below the threshold

Target: T10, MPP7, Q5T2T1
Assay: holdup assay
Parameters: key: below the threshold = too weak to quantify, mostly under pKd 3.1 to 4
Details: plain residues with an end cap or a label only (N-terminal biotin on a linker: ado-ado)

Binder	pKd
B1	below the threshold
B2	below the threshold
B3	below the threshold

Target: T11, HTRA3, P83110
Assay: holdup assay
Parameters: key: below the threshold = too weak to quantify, mostly under pKd 3.1 to 4
Details: plain residues with an end cap or a label only (N-terminal biotin on a linker: ado-ado)

Binder	pKd
B1	below the threshold
B2	below the threshold
B3	below the threshold

Target: MAGI1_1, Q96QZ7
Assay: holdup assay
Parameters: key: below the threshold = too weak to quantify, mostly under pKd 3.1 to 4
Details: plain residues with an end cap or a label only (N-terminal biotin on a linker: ado-ado)

Chain of MAGI1_1, Q96QZ7 (Q96QZ7 1-106): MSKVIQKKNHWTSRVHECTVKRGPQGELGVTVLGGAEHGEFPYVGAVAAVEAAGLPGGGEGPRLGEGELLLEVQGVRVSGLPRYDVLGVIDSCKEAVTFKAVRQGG

Binder	pKd
B1	below the threshold
B2	below the threshold
B3	below the threshold

Target: GRIP2_4, Q9C0E4
Assay: holdup assay
Parameters: key: below the threshold = too weak to quantify, mostly under pKd 3.1 to 4
Details: plain residues with an end cap or a label only (N-terminal biotin on a linker: ado-ado)

Chain of GRIP2_4, Q9C0E4 (Q9C0E4 446-548): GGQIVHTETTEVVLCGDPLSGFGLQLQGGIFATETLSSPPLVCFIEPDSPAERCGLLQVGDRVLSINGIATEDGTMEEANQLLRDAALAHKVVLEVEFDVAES

Binder	pKd
B1	below the threshold
B2	below the threshold
B3	below the threshold

Target: T12, MPP6, Q9NZW5
Assay: holdup assay
Parameters: key: below the threshold = too weak to quantify, mostly under pKd 3.1 to 4
Details: plain residues with an end cap or a label only (N-terminal biotin on a linker: ado-ado)

Binder	pKd
B1	below the threshold
B2	below the threshold
B3	below the threshold

Target: T13, FRMPD1, Q5SYB0
Assay: holdup assay
Parameters: key: below the threshold = too weak to quantify, mostly under pKd 3.1 to 4
Details: plain residues with an end cap or a label only (N-terminal biotin on a linker: ado-ado)

Binder	pKd
B1	below the threshold
B2	below the threshold
B3	below the threshold

Target: T14, NHERF3_4, Q5T2W1
Assay: holdup assay
Parameters: key: below the threshold = too weak to quantify, mostly under pKd 3.1 to 4
Details: plain residues with an end cap or a label only (N-terminal biotin on a linker: ado-ado)

Binder	pKd
B1	3.51
B2	below the threshold
B3	below the threshold

Target: T15, RHPN1, Q8TCX5
Assay: holdup assay
Parameters: key: below the threshold = too weak to quantify, mostly under pKd 3.1 to 4
Details: plain residues with an end cap or a label only (N-terminal biotin on a linker: ado-ado)

Binder	pKd
B1	3.72
B2	4.6
B3	4.07

Target: MAGI2_6, Q86UL8
Assay: holdup assay
Parameters: key: below the threshold = too weak to quantify, mostly under pKd 3.1 to 4
Details: plain residues with an end cap or a label only (N-terminal biotin on a linker: ado-ado)

Chain of MAGI2_6, Q86UL8 (Q86UL8 1141-1229): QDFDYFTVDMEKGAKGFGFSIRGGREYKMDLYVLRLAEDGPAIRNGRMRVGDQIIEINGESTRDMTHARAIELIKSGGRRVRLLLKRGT

Binder	pKd
B1	below the threshold
B2	3.96
B3	below the threshold

Target: FRMPD2_1, Q68DX3
Assay: holdup assay
Parameters: key: below the threshold = too weak to quantify, mostly under pKd 3.1 to 4
Details: plain residues with an end cap or a label only (N-terminal biotin on a linker: ado-ado)

Chain of FRMPD2_1, Q68DX3 (Q68DX3 770-861): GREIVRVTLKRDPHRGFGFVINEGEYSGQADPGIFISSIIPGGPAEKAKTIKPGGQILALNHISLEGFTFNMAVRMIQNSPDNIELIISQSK

Binder	pKd
B1	3.88
B2	below the threshold
B3	3.8
